# Measurements reported in PMC3201852 (Nucleic Acids Research, 2011).
# B1: GST-5MP1 fusion protein (human eIF5-mimic protein 1) (natural protein, UniProt Q9Y6E2 1-419, looked up)
# chain: MNKHQKPVLTGQRFKTRKRDEKEKFEPTVFRDTLVQGLNEAGDDLEAVAKFLDSTGSRLDYRRYADTLFDILVAGSMLAPGGTRIDDGDKTKMTNHCVFSANEDHETIRNYAQVFNKLIRRYKYLEKAFEDEMKKLLLFLKAFSETEQTKLAMLSGILLGNGTLPATILTSLFTDSLVKEGIAASFAVKLFKAWMAEKDANSVTSSLRKANLDKRLLELFPVNRQSVDHFAKYFTDAGLKELSDFLRVQQSLGTRKELQKELQERLSQECPIKEVVLYVKEEMKRNDLPETAVIGLLWTCIMNAVEWNKKEELVAEQALKHLKQYAPLLAVFSSQGQSELILLQKVQEYCYDNIHFMKAFQKIVVLFYKADVLSEEAILKWYKEAHVAKGKSVFLDQMKKFVEWLQNAEEESESEGEEN
# Key:
# Assay in all cases: pull-down
# [1] = target: GST-fused human eIF2β (GST-eIF2β) (human) (UniProt P20042)
# Sequence of GST-fused human eIF2β (GST-eIF2β) (human) (P20042 whole entry, the tested form may be a part): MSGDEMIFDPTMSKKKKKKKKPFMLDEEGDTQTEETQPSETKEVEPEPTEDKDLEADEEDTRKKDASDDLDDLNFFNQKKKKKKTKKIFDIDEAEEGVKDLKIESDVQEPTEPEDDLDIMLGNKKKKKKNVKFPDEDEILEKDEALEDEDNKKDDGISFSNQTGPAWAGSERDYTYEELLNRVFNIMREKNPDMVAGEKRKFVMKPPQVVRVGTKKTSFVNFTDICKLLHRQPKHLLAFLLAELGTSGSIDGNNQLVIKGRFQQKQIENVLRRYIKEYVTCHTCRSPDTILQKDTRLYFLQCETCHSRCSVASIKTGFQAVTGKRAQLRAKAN
# [2] = target: GST-5MP1-7A (7 alanine substitutions in AA-box 2) (human) (UniProt Q9Y6E2)
# [3] = target: human eIF2 purified from HeLa cells (human, UniProt P05198 1-315; P20042 1-333; P41091 1-472)
# Sequence of human eIF2 purified from HeLa cells (human, UniProt P05198 1-315; P20042 1-333; P41091 1-472) (P05198 whole entry, chain 1 of 3): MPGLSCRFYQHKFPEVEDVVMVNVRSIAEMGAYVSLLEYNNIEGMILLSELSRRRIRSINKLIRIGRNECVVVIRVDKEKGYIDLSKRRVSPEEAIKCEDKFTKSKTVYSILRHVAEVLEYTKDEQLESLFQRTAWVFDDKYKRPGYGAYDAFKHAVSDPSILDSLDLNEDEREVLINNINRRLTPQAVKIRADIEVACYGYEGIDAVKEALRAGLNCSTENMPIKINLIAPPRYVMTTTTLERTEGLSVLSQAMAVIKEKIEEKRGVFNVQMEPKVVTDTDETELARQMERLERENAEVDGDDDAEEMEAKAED
# Sequence of human eIF2 purified from HeLa cells (human, UniProt P05198 1-315; P20042 1-333; P41091 1-472) (P20042 whole entry, chain 2 of 3): as the sequence (P20042 whole entry, the tested form may be a part) above
# Sequence of human eIF2 purified from HeLa cells (human, UniProt P05198 1-315; P20042 1-333; P41091 1-472) (P41091 whole entry, chain 3 of 3): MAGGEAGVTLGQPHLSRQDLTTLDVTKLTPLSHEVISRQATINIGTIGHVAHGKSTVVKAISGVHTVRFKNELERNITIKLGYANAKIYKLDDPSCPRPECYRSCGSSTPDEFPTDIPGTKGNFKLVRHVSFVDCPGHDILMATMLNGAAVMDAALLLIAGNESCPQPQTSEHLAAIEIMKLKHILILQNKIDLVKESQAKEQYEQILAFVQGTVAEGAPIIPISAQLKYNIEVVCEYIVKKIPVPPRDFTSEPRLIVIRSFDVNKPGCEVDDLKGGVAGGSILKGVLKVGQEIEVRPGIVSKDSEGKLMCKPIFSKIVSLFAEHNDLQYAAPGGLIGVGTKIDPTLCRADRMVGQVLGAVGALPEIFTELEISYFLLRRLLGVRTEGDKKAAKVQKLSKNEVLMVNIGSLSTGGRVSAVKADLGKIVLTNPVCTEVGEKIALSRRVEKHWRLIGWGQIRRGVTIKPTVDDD
molecule,measurement,setting,value
FL-5MP1-7A (FLAG-tagged 5MP1 with the AA-box 2 mutation 7A) (from UniProt Q9Y6E2 1-419) (natural protein),fold reduction of binding against wild-type FL-5MP1,[1],2 fold
human eIF2 purified from HeLa cells (from UniProt P05198 1-315; P20042 1-333; P41091 1-472) (complex),fold reduction of binding against wild-type GST-5MP1,[2],> 2 fold
B1,binding result,[3],binds
